{"source": "paper PMC10838314", "about": "“Exploring TRF2-Dependent DNA Distortion Through Single-DNA Manipulation Studies”", "binders": {"B1": {"name": "5-repeat telomeric hairpin (structured_DNA)", "DNA": "CTTGTGCACAGACTCGTTTGGTTATCGAAGGTTAGGGTTAGGGTTAGGGTTAGGGTTAGGGTGCTACCAGGAAAAAAAACCTGGTAGCACCCTAACCCTAACCCTAACCCTAACCCTAACCTTCGATAACCTTTGCAGCCAGGTCAGTAGCGAC", "modifications": "5' phosphate"}, "B2": {"name": "non-telomeric hairpin (structured_DNA)", "DNA": "CTTGTGCACAGACTCGTTTGGTTATCGAAGGTAAGGTCTGGCGAACGGTGTATTACCGGTTTGCTACCAGGAAAAAAAACCTGGTAGCAAACCGGTAATACACCGTTCGCCAGACCTTACCTTCGATAACCTTTGCAGCCAGGTCAGTAGCGAC", "modifications": "5' phosphate"}}, "conditions_in_all_cases": "protein: recombinant, tags: N-terminal His6 removed by TEV, chain copies: 2, label: 5' biotin and 3' thiol via ligated handles, 52 bp stem, 8 nt loop", "key": {"[1]": {"molecular_target": "T1, hTRF2 full-length (Homo sapiens, UniProt Q15554 43-542)", "T1 sequence (Q15554 43-542)": "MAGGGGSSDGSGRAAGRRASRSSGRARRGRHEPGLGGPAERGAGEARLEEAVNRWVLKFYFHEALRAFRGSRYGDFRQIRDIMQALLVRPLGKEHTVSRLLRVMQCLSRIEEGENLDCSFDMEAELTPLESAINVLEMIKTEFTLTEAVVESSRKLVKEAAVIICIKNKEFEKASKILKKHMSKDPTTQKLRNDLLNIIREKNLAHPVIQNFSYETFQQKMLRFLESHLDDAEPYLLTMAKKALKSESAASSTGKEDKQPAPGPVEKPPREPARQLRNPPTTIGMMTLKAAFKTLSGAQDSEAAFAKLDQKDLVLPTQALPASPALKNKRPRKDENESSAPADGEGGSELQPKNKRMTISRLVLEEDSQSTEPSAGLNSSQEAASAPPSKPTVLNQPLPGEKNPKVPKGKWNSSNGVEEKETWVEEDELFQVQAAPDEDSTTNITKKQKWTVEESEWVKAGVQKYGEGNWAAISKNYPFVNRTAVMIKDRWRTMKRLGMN", "assay": "single-molecule magnetic tweezers hairpin unzipping; Hill n=1.0±0.3; Fb 7 pN; Magnetic tweezers: 150 mM KCl (stretching; full buffer, pH and temperature not in material). EMSA: 25 mM HEPES-Na pH 7.5, 50 mM NaCl, 4 C, 30 min"}, "[2]": {"molecular_target": "TRFH (TRF2 42-245) (Homo sapiens, UniProt Q15554 84-287)", "sequence (Q15554 84-287)": "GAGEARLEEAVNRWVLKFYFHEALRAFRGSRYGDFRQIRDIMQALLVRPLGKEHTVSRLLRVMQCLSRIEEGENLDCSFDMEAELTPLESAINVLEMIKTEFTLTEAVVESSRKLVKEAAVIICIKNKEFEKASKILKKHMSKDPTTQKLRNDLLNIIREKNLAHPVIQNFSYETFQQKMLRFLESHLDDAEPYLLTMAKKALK", "assay": "single-molecule magnetic tweezers hairpin unzipping; no unzipping delay up to 5 uM; very dynamic binding not excluded; Magnetic tweezers: 150 mM KCl (stretching; full buffer, pH and temperature not in material). EMSA: 25 mM HEPES-Na pH 7.5, 50 mM NaCl, 4 C, 30 min"}, "[3]": {"molecular_target": "TRF2 45-500 (deltaB-TRF2) (Homo sapiens, UniProt Q15554 87-542, del43-86)", "sequence (Q15554 87-542, stated change not applied)": "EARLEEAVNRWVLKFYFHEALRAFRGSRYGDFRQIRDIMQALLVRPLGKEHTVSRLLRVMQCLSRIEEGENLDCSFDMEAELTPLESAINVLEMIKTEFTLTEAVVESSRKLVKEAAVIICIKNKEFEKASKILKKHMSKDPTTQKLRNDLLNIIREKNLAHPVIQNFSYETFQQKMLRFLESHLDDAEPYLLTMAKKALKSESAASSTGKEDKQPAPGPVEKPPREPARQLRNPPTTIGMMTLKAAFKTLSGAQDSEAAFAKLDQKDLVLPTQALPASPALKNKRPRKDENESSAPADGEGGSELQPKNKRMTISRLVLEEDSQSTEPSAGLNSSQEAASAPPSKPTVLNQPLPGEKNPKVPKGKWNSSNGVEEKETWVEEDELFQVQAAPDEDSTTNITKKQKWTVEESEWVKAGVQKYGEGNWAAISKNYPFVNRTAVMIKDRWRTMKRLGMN", "assay": "single-molecule magnetic tweezers hairpin unzipping; Hill n=1.0±0.2; Magnetic tweezers: 150 mM KCl (stretching; full buffer, pH and temperature not in material). EMSA: 25 mM HEPES-Na pH 7.5, 50 mM NaCl, 4 C, 30 min"}, "[4]": {"molecular_target": "T1, hTRF2 full-length", "assay": "single-molecule magnetic tweezers hairpin unzipping; Hill n=1.2±1.7; Magnetic tweezers: 150 mM KCl (stretching; full buffer, pH and temperature not in material). EMSA: 25 mM HEPES-Na pH 7.5, 50 mM NaCl, 4 C, 30 min"}}, "data": [{"binder": "B1", "values": [{"measurement": "Kd", "setting": "[1]", "value": "10.3 ± 2.9", "unit": "nM"}, {"measurement": "binding result", "setting": "[2]", "value": "no binding"}, {"measurement": "Kd", "setting": "[3]", "value": "284 ± 70.5", "unit": "nM"}]}, {"binder": "B2", "values": [{"measurement": "Kd", "setting": "[4]", "value": "76.8 ± 31.7", "unit": "nM"}]}]}
